Consider 37 sequences from the supplement of paper PMC10567573.

± gives the standard deviation.

The data set is described as follows: protein stability index of a GFP-peptide fusion (GPS, HEK-293T) (PSI 1-6); higher = more stable. The note with it: c terminus: a fixed tail appended.
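Further: 24-mer peptide tiles fused after GFP, lentivirally expressed, FACS-sorted into six equal bins by GFP/DsRed ratio, decoded by Illumina sequencing, PSI is the read-weighted mean bin number.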

For FSEPSFITESYQTLHPISSEELLS [ETS1], the protein stability index runs as follows: (treatment: DMSO) 2.77 ± 0.4; (treatment: MLN4924 1 uM, 8 h) 3.28 ± 0.41.

In the case of GMRDADYIAAFLHVLLPVALEFQP [HDAC6], the protein stability index is 3.02 ± 0.47 (treatment: DMSO) and 2.96 ± 0.42 (treatment: MLN4924 1 uM, 8 h).

EELAKKRFKDKSSEEAVREVHRLI [TPPP]: the protein stability index is, setting by setting: (treatment: DMSO) 3.54 ± 0.24; (treatment: MLN4924 1 uM, 8 h) 3.41 ± 0.27.

For the sequence TTCSTPLLNSPPSFVCWSRGFMEM [AUP1], the protein stability index was 2.21 ± 0.26 (treatment: DMSO) and 2.33 ± 0.31 (treatment: MLN4924 1 uM, 8 h).

With YYPSGDAFASGSDDATCRLYDLRA [GNB5], the protein stability index amounted to 2.94 ± 0.33 (treatment: DMSO) and 3.38 ± 0.34 (treatment: MLN4924 1 uM, 8 h).

Regarding KEEREDTPIQLQELLALETALGGQ [TCAP], the protein stability index worked out at 5.17 ± 0.24 (treatment: DMSO) and 5.04 ± 0.14 (treatment: MLN4924 1 uM, 8 h).

RKADFKAGKALVISGREVFEFRPE [ZC3H15]: the protein stability index amounted to 3.11 ± 0.25 (treatment: DMSO) and 3.38 ± 0.41 (treatment: MLN4924 1 uM, 8 h).

Turning to QVATSPDFDGKLKDIAGEFKEQLQ [ATL3], the protein stability index (treatment: DMSO) is 4.34 ± 0.35 and the protein stability index (treatment: MLN4924 1 uM, 8 h) stood at 4.32 ± 0.38.

For the sequence VNRFGTYPALASKNGKKWEILNFN [ACSBG2], the protein stability index came out at 2.81 ± 0.28 (treatment: DMSO) and 2.71 ± 0.49 (treatment: MLN4924 1 uM, 8 h).

As for LRLADEFGVAVVITNQVVAQVDGA [RAD51], the protein stability index reads like this: (treatment: DMSO) 2.31 ± 0.52; (treatment: MLN4924 1 uM, 8 h) 2.1 ± 0.39.

Take GELLGEARYYLVQGLIEDCQLALQ [KCTD13]: the protein stability index worked out at 2.15 ± 0.64 (treatment: DMSO) and 2.3 ± 0.28 (treatment: MLN4924 1 uM, 8 h).

Consider THHKLCTFILKNPPENSDSGTGKK [EIF5], for which the protein stability index runs as follows: (treatment: DMSO) 3.95 ± 0.27; (treatment: MLN4924 1 uM, 8 h) 4.28 ± 0.18.

With LIPVPMATQIQQLLQDKQFELALQ [VPS39], the protein stability index by setting is: (treatment: DMSO) 2.31 ± 0.12; (treatment: MLN4924 1 uM, 8 h) 2.69 ± 0.29.

For the sequence SIQMNVAEVSWEPGRREGCDICAG [RPS21], the protein stability index by setting is: (treatment: DMSO) 2.7 ± 0.92; (treatment: MLN4924 1 uM, 8 h) 3.35 ± 1.3.

As to LASITETIQVHRRYWRSLRVMKVE [HDAC6], the protein stability index is 2.42 ± 0.3 (treatment: DMSO) and 2.31 ± 0.16 (treatment: MLN4924 1 uM, 8 h).

With QRQQLPVTFGNKQKVLGKALSLIR [BTBD1], the protein stability index runs as follows: (treatment: DMSO) 2.81 ± 1; (treatment: MLN4924 1 uM, 8 h) 2.2 ± 0.41.

Take LSEEERSEKAMLRSRIEEQSQLIC [CCDC89]: the protein stability index was 4.53 ± 0.3 (treatment: DMSO) and 4.62 ± 0.11 (treatment: MLN4924 1 uM, 8 h).

As to MANQEAAIQAFLDKCSAPKIWRTP [IQUB], the protein stability index runs as follows: (treatment: DMSO) 3.11 ± 0.14; (treatment: MLN4924 1 uM, 8 h) 3.16 ± 0.34.

For the sequence QYLMATFVHVYITSFIRGPNPSKV [CDS1], the protein stability index reads like this: (treatment: DMSO) 3.12 ± 0.17; (treatment: MLN4924 1 uM, 8 h) 3.2 ± 0.34.

For the sequence ACGLGGGYGGGFSSSSSFGSGFGG [KRT16], the protein stability index by setting is: (treatment: DMSO) 2.17 ± 0.27; (treatment: MLN4924 1 uM, 8 h) 2.29 ± 0.25.

DALNAYVCKGLPQHEEICLGLFTL [INTS3] registered a protein stability index (treatment: DMSO) of 2.81 ± 0.64 and a protein stability index (treatment: MLN4924 1 uM, 8 h) of 2.67 ± 0.74.

For the sequence NVLSDLYAMGITECDNMLMLLSVS [SEPHS2], the protein stability index is, setting by setting: (treatment: DMSO) 2.93 ± 0.55; (treatment: MLN4924 1 uM, 8 h) 2.71 ± 0.42.

As to KPYKCQQCDKRFRWSSDLNKHLTT [ZNF75A], the protein stability index is, setting by setting: (treatment: DMSO) 2.18 ± 0.14; (treatment: MLN4924 1 uM, 8 h) 2.37 ± 0.17.

Regarding MPSETLWEIAKAEVEKRGINGSEG [DYNC2LI1], the protein stability index was 4.88 ± 0.15 (treatment: DMSO) and 5.1 ± 0.1 (treatment: MLN4924 1 uM, 8 h).

For REHVCRKDQRNPPSLGRVLPDPRE [RBMY1A1], the protein stability index came out at 4.69 ± 0.22 (treatment: DMSO) and 4.8 ± 0.24 (treatment: MLN4924 1 uM, 8 h).

Where the note is “treatment: DMSO”, MEGDGGTPWALALLRTFDAGEFTG [RIPK4] displayed a protein stability index of 2.11 ± 0.16.

For the sequence SNYFSMDSMEGKRSPYAGLQLGAA [TRIM29], the protein stability index is 2.88 ± 0.3 (treatment: DMSO) and 2.99 ± 0.22 (treatment: MLN4924 1 uM, 8 h).

With RSHFLWKEPATMSWLEENVHEVLQ [TCF25], the protein stability index is 2.43 ± 0.78 (treatment: DMSO) and 2.69 ± 0.39 (treatment: MLN4924 1 uM, 8 h).

As for PDAETLKVMKQPRCGVPDVAQFVL [MMP1], the protein stability index reads like this: (treatment: DMSO) 2.4 ± 0.3; (treatment: MLN4924 1 uM, 8 h) 2.31 ± 0.27.

Sequence VKMFYSFQDKRNLYLIMEFLPGGD [STK38L] registered a protein stability index (treatment: DMSO) of 3.11 ± 0.85 and a protein stability index (treatment: MLN4924 1 uM, 8 h) of 3.29 ± 0.4.

On to HGDARATGREMHGKNWSKLCKDCQ [TPPP], for which the protein stability index was 4.18 ± 0.13 (treatment: DMSO) and 4.53 ± 0.23 (treatment: MLN4924 1 uM, 8 h).

Turning to DVKVGGSKYGIINLQSLKTPTLKV [DCAF4], the protein stability index (treatment: DMSO) worked out at 2.62 ± 0.2 and the protein stability index (treatment: MLN4924 1 uM, 8 h) is 2.65 ± 0.28.

With FLHPDLGVGGAERLVLDAALALQA [ALG2], the protein stability index is, setting by setting: (treatment: DMSO) 2.32 ± 0.43; (treatment: MLN4924 1 uM, 8 h) 2.27 ± 0.23.

On to PTEGAGSPAKASQASKLRASKEEK [FBF1], for which the protein stability index (treatment: DMSO) came to 5.41 ± 0.21 and the protein stability index (treatment: MLN4924 1 uM, 8 h) is 5.43 ± 0.28.

Take LGDPPPLLTLPRPPLSGALASITE [HDAC6]: the protein stability index (treatment: DMSO) worked out at 4.33 ± 0.38 and the protein stability index (treatment: MLN4924 1 uM, 8 h) was found to be 4.41 ± 0.32.

For GGNPFAEPSELDNPFQDPAVIQHR [SCAMP3], the protein stability index is, setting by setting: (treatment: DMSO) 4.67 ± 0.14; (treatment: MLN4924 1 uM, 8 h) 4.98 ± 0.17.

As for LLLILVSYVHILSAILQFPSTLGR [OR10K2], the protein stability index reads like this: (treatment: DMSO) 2.98 ± 0.16; (treatment: MLN4924 1 uM, 8 h) 3.33 ± 0.35.
